In publication PMC3417418 (2012):

Tests used:
[1] = target: T1, CXCR3 (Homo sapiens, UniProt P49682); assay: homologous competition 125I radioligand binding on L1.2 cells
T1 chain: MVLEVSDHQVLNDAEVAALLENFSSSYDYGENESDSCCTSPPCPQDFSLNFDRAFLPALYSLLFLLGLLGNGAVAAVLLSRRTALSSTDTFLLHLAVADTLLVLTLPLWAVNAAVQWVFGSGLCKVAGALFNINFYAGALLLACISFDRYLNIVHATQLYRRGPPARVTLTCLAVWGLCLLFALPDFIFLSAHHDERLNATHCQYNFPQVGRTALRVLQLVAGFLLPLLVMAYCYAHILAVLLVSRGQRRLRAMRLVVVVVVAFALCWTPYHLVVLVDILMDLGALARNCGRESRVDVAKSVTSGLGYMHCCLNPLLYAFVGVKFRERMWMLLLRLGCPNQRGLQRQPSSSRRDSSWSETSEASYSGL

[2] = target: T2, CXCR3 (Homo sapiens, UniProt P49682); assay: as above
T2 chain: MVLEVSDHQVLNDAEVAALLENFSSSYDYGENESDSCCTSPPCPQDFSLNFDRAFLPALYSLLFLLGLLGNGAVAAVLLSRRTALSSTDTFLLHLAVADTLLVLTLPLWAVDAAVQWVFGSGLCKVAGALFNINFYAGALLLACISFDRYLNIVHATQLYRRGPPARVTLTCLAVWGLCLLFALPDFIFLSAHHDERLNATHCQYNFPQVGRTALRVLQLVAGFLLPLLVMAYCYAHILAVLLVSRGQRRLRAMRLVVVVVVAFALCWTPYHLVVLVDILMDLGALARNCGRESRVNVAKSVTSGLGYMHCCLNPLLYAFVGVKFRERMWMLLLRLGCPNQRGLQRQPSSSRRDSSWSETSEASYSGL

[3] = target: T3, CXCR3 (Homo sapiens, UniProt P49682); assay: as above
T3 chain: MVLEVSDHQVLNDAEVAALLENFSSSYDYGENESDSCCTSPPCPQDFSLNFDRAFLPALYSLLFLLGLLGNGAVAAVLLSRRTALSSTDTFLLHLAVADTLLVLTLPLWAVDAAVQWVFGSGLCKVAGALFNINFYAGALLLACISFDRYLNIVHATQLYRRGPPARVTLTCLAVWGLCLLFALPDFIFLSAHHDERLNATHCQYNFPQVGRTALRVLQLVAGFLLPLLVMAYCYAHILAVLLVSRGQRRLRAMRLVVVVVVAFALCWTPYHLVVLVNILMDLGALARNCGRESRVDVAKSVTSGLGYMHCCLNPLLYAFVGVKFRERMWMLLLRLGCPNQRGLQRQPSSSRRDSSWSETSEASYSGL

[4] = target: T4, CXCR3 (Homo sapiens, UniProt P49682); assay: as above
T4 chain: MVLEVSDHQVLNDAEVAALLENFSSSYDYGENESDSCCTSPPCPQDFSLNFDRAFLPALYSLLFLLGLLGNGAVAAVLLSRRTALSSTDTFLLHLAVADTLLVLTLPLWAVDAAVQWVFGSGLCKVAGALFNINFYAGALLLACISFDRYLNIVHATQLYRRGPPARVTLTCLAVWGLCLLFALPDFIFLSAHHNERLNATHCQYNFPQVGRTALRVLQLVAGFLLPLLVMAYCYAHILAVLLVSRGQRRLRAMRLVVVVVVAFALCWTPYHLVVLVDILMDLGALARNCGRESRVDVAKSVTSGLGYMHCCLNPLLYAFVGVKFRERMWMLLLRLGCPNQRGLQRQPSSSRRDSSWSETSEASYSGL

[5] = target: T5, CXCR3 (Homo sapiens, UniProt P49682); assay: as above
T5 chain: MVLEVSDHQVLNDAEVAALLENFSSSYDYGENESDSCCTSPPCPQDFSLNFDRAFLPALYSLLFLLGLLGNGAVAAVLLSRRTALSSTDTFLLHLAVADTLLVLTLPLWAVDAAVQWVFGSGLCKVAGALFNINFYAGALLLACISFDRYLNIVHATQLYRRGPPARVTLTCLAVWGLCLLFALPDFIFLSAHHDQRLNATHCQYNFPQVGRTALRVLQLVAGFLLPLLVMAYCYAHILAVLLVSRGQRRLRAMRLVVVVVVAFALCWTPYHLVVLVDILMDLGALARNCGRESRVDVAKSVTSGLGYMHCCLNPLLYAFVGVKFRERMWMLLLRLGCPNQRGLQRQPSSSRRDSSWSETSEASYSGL

[6] = target: T6, CXCR3 (Homo sapiens, UniProt P49682); assay: as above
T6 chain: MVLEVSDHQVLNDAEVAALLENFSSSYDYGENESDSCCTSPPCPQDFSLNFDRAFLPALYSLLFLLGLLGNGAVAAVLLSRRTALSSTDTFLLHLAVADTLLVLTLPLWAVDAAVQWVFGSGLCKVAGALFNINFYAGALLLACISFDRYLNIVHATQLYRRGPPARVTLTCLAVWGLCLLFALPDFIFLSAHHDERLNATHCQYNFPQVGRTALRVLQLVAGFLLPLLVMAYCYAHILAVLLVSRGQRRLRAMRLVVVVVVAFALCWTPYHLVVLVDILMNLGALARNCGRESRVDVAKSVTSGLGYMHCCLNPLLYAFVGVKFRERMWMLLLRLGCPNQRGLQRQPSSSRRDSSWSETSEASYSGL

[7] = target: T7, CXCR3 (Homo sapiens, UniProt P49682); assay: competition with 125I-CXCL10 on L1.2 cells
T7 chain: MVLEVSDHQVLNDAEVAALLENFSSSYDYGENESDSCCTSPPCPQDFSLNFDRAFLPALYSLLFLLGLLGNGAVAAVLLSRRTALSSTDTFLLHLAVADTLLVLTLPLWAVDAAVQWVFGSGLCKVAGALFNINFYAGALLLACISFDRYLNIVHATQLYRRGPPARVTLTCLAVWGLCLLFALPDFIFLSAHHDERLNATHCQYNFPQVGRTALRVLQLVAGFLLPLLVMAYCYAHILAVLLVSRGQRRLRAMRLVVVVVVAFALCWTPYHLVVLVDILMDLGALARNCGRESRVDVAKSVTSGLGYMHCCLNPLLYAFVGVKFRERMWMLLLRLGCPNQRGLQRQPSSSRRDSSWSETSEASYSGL

[8] = target: T7, CXCR3; assay: competition with 125I-CXCL11 on L1.2 cells

- Kd [1]: 3.8 nM
- Kd [2]: 26.3 nM
- Kd [3]: 2.6 nM
- Kd [4]: 16 nM
- Kd [5]: 0.4 nM
- Kd [6]: 1.4 nM
- IC50 [7]: 0.4 nM
- IC50 [8]: 1.2 nM
B1: CXCL11 (protein)
chain: FPMFKRGRCLCIGPGVKAVKVADIEKASIMYPSNNCDKIEVIITLKENKGQRCLNPKSKQARLIIKKVERKNF
